± gives the standard error. This sample holds only a part of the variants without activity.
B1: glmS ribozyme (parent)
chain: AUAAAAGCGCCAGAACUACAGAAAUGUAGUUGACGAGGAGGAGGUUUAUCGAAUUUUCGGCGGAUGCCUCCAAA

Key:
Details in all cases: with glucosamine-6-phosphate
glucosamine-6-phosphate [1] = variants of: B1; experiment: self-cleavage kobs at 40 uM GlcN6P; higher = faster cleavage; RNA array
In short: (§1)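 Barcoded ribozyme variants were transcribed in situ on sequenced MiSeq chips by E. coli RNA polymerase. At 37 °C, a hybridised Cy3 probe tracked them while glucosamine-6-phosphate (40 μM to 10 mM) in HEPES/KCl/Mg(OAc)2 buffer flowed in and tiles were imaged over ~14 h. Per-tile medians of signals normalised to baseline and to non-cleaving reference variants were fit to one- or two-exponential decays, giving kobs. kcat and KM came from weighted Michaelis–Menten fits across concentrations.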

glucosamine-6-phosphate [2] = variants of: B1; experiment: self-cleavage kobs at 640 uM GlcN6P; higher = faster cleavage; RNA array
In short: as §1

glucosamine-6-phosphate [3] = variants of: B1; experiment: self-cleavage kobs at 2500 uM GlcN6P; higher = faster cleavage; RNA array
In short: as §1

glucosamine-6-phosphate [4] = variants of: B1; experiment: self-cleavage kobs at 10000 uM GlcN6P; higher = faster cleavage; RNA array
In short: as §1

glucosamine-6-phosphate [5] = variants of: B1; experiment: self-cleavage kobs at 160 uM GlcN6P; higher = faster cleavage; RNA array
In short: as §1

| Variant | self-cleavage kobs at 40 uM GlcN6P (glucosamine-6-phosphate [1]) | self-cleavage kobs at 640 uM GlcN6P (glucosamine-6-phosphate [2]) | self-cleavage kobs at 2500 uM GlcN6P (glucosamine-6-phosphate [3]) | self-cleavage kobs at 10000 uM GlcN6P (glucosamine-6-phosphate [4]) | self-cleavage kobs at 160 uM GlcN6P (glucosamine-6-phosphate [5]) |
| --- | --- | --- | --- | --- | --- |
| A6C G32C U47A | < 1e-05 s⁻¹ | < 1e-05 s⁻¹ | < 1e-05 s⁻¹ | – | – |
| C34G A53C U69A | < 1e-05 s⁻¹ | – | – | < 1e-05 s⁻¹ | – |
| A48U C61A | < 1e-05 s⁻¹ | – | – | < 1e-05 s⁻¹ | < 1e-05 s⁻¹ |
| A48C A52C | < 1e-05 s⁻¹ | < 1e-05 s⁻¹ | < 1e-05 s⁻¹ | < 1e-05 s⁻¹ | < 1e-05 s⁻¹ |
| G7C C34U G35A G37U A42U G43U C71A | < 1e-05 s⁻¹ | < 1e-05 s⁻¹ | – | – | – |
| A42C C71G | < 1e-05 s⁻¹ | < 1e-05 s⁻¹ | < 1e-05 s⁻¹ | < 1e-05 s⁻¹ | < 1e-05 s⁻¹ |
| A6U G13C U69C | < 1e-05 s⁻¹ | – | – | < 1e-05 s⁻¹ | – |
| A6C G32C G60U | < 1e-05 s⁻¹ | – | – | < 1e-05 s⁻¹ | – |
| A36G C50G U56G C61A | 0.000189 ± 6.2e-05 s⁻¹ | – | – | 0.000459 ± 0.00011 s⁻¹ | – |
| U49G U54G | 3.67e-05 ± 1.4e-05 s⁻¹ | – | – | 0.000838 ± 0.00014 s⁻¹ | – |
| A6U A36U | < 1e-05 s⁻¹ | < 1e-05 s⁻¹ | < 1e-05 s⁻¹ | < 1e-05 s⁻¹ | < 1e-05 s⁻¹ |
| C16G U49C | < 1e-05 s⁻¹ | – | < 1e-05 s⁻¹ | < 1e-05 s⁻¹ | < 1e-05 s⁻¹ |
| A6G A15C U31C A42C | < 1e-05 s⁻¹ | – | – | < 1e-05 s⁻¹ | – |
| G37C U46G A48U | < 1e-05 s⁻¹ | – | – | < 1e-05 s⁻¹ | – |
| C8G C58A | < 1e-05 s⁻¹ | < 1e-05 s⁻¹ | < 1e-05 s⁻¹ | < 1e-05 s⁻¹ | < 1e-05 s⁻¹ |
| A14G A15U | 0.00111 ± 0.00019 s⁻¹ | 0.00751 ± 0.0013 s⁻¹ | 0.00555 ± 0.0014 s⁻¹ | 0.0592 ± 0.021 s⁻¹ | 0.000722 ± 0.00014 s⁻¹ |
| G13A A33C C50A C71U | < 1e-05 s⁻¹ | – | < 1e-05 s⁻¹ | – | – |
| G29U G41U G51A | < 1e-05 s⁻¹ | – | < 1e-05 s⁻¹ | – | – |
| A6C U31C C68G | < 1e-05 s⁻¹ | – | – | – | – |
| A12C A14G | 0.00067 ± 0.00016 s⁻¹ | 0.00653 ± 0.0012 s⁻¹ | 0.0128 ± 0.0023 s⁻¹ | 0.0484 ± 0.011 s⁻¹ | 0.00156 ± 0.00021 s⁻¹ |
| U2C G7C A42G U56A C61A | < 1e-05 s⁻¹ | – | – | < 1e-05 s⁻¹ | – |
